This passage reports Estimated EC50, IL-1α neutralization (MRC-5) and Estimated EC50, IL-1β neutralization (MRC-5) results from patent US20090291081A1.

One experiment deals with human IL-1α (human) (UniProt P01583). The experiment is described as follows: cell-based or functional assay.
In a further experiment the target is human IL-1β (human) (UniProt P01584). The experiment is described as follows: cell-based or functional assay.
human IL-1β (human), sequence (P01584 117-269 limits assumed): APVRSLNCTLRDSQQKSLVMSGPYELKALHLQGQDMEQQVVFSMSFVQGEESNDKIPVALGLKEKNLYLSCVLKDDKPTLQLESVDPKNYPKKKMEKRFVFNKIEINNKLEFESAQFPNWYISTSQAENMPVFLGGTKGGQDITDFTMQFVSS

human IL-1α (human), sequence (P01583 113-271 limits assumed): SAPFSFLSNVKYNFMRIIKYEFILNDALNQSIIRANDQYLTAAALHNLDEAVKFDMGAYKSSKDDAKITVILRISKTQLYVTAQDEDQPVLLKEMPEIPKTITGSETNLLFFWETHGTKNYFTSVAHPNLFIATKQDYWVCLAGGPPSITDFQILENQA

B1: ABT1-207/ABT2-108-538x scFc (Fc fusion, part only; not given: Domain junction linker and Fc, not shown: a dimerising Fc or GST)
chain, part: EVQLLESGGGLIQPGGSLRLSCAASGFTFGRYYMSWVRQAPGKGLEWVSSIDYLGTNTYYADSVKGRFTISRDNSKNTLYLQMNSLRAEDTAVYYCAKLTRIRPPNFDYWGQGTLVTVSSEVQLLESGGGLVQPGGSLRLSCAASGFTFADEGMMWVRQAPGKGLEWVSRITYSGKNTYYADSVKGRFTISRDNSKNTLYLQMNSLRAEDTAVYYCAKYTGRILGHHLFDYWGQGTLVTVSSGGGGSGGGGSGGGGS
Consider B1, for which the Estimated EC50, IL-1α neutralization (MRC-5) with human IL-1α (human) is 25 nM. For the same molecule, the Estimated EC50, IL-1β neutralization (MRC-5) in the experiment with human IL-1β (human) is 1.1 nM.

B2: ABT1-98/ABT2-108-538x scFc (Fc fusion, part only; not given: Domain junction linker and Fc, not shown: a dimerising Fc or GST)
chain, part: EVQLLESGGGLVQPGGSLRLSCAASGFTFDGYIMSWVRQAPGKGLEWVSTISPLGSVTYYADSVKGRFTISRDNSKNTLYLQMNSLRAEDTAVYYCAKKGPWFDYWGQGTLVTVSSEVQLLESGGGLVQPGGSLRLSCAASGFTFADEGMMWVRQAPGKGLEWVSRITYSGKNTYYADSVKGRFTISRDNSKNTLYLQMNSLRAEDTAVYYCAKYTGRILGHHLFDYWGQGTLVTVSSGGGGSGGGGSGGGGS
As for B2, the Estimated EC50, IL-1α neutralization (MRC-5) with human IL-1α (human) is 30 nM. Further, the Estimated EC50, IL-1β neutralization (MRC-5) in the experiment with human IL-1β (human) is 1.3 nM.

B3: ABT2-108-538x/ABT1-207 scFc (Fc fusion, part only; not given: Domain junction linker and Fc, not shown: a dimerising Fc or GST)
chain, part: EVQLLESGGGLVQPGGSLRLSCAASGFTFADEGMMWVRQAPGKGLEWVSRITYSGKNTYYADSVKGRFTISRDNSKNTLYLQMNSLRAEDTAVYYCAKYTGRILGHHLFDYWGQGTLVTVSSEVQLLESGGGLIQPGGSLRLSCAASGFTFGRYYMSWVRQAPGKGLEWVSSIDYLGTNTYYADSVKGRFTISRDNSKNTLYLQMNSLRAEDTAVYYCAKLTRIRPPNFDYWGQGTLVTVSSGGGGSGGGGSGGGGS
For the molecule B3, in the experiment with human IL-1α (human), the Estimated EC50, IL-1α neutralization (MRC-5) is 50 nM. The Estimated EC50, IL-1β neutralization (MRC-5) with human IL-1β (human) was 0.002 nM.

B4: ABT2-108-538x/ABT1-98 scFc (Fc fusion, part only; not given: Domain junction linker and Fc, not shown: a dimerising Fc or GST)
chain, part: EVQLLESGGGLVQPGGSLRLSCAASGFTFADEGMMWVRQAPGKGLEWVSRITYSGKNTYYADSVKGRFTISRDNSKNTLYLQMNSLRAEDTAVYYCAKYTGRILGHHLFDYWGQGTLVTVSSEVQLLESGGGLVQPGGSLRLSCAASGFTFDGYIMSWVRQAPGKGLEWVSTISPLGSVTYYADSVKGRFTISRDNSKNTLYLQMNSLRAEDTAVYYCAKKGPWFDYWGQGTLVTVSSGGGGSGGGGSGGGGS
Take B4: the Estimated EC50, IL-1α neutralization (MRC-5) with human IL-1α (human) was 3 nM. Moreover, the Estimated EC50, IL-1β neutralization (MRC-5) with human IL-1β (human) is less than 0.001 nM.
